Experimental data from patent US20260041733A1, “COMBINATION FOR USE IN OPHTHALMOLOGY” (Dompe' farmaceutici SPA, priority 2022, published 2026).

Legend:
male Sprague-Dawley rats = experiment: Eye wiping test (ocular discomfort after ocular administration); type: in vivo; settings: 3.5 μg/ml sesamin with 20 μg/ml rhNGF in Vehicle 2
Method: An eye wiping test was carried out to evaluate ocular discomfort induced by ocular administration of rhNGF alone or in combination with Sesamin.
The experiments were performed on male Sprague-Dawley rats (300-320 g), Charles River, Italy) housed in the animal care facility of the Department of Pharmacy, University of Naples. Food and water were available ad libitum.
Rats were divided in 4 experimental groups:
Animals were treated with 20 μg/ml of rhNGF in Vehicle 1 (n=8);
Animals were treated with 20 μg/ml of rhNGF and 3.5 μg/ml sesamin in Vehicle 2 (n=8) All compositions tested were prepared immediately before use from lyophilized placebo or rhNGF reconstituted in a volume of 1 mL of the vehicle.
The treatments described above were administered as eye drops 1 time per day, in a volume of 10 μL. Following the application, the eye wiping test was performed.
Animals were placed on a 50×50 cm table for 10 min habituation period. 10 μL of solutions were applied into the left eye of animals and the number of eye wipes was counted for 30 min.
All data are presented as the mean±SEM. Analysis of data were conducted using GraphPad Prism 8. Statistical analysis was performed by two-way ANOVA followed by Tukey's test for multiple comparisons, as appropriate. Statistical significance was set at *p<0.05.

[1] = system: Dorsal Root Ganglia (DRG) neurons; experiment: Levels of autophagy pathway proteins (Western blot) in F11 cells differentiated into DRGs; type: cell-based; settings: 24 h
Method: The effect of NGF on autophagy in the presence and absence of sesamin was assessed on Dorsal Root Ganglia (DRG) neurons, involved in the development of NGF sensory side effects, by analysing the impact of the different treatments on the levels of the above proteins involved in autophagy pathway. F11 cells were cultured in Dulbecco's modified Eagle's medium (DMEM, Cat #D6546; Sigma-Aldrich, St. Louis, MO, USA), with 10% fetal bovine serum, 2 mM glutamine (Sigma-Aldrich, USA). Cells were incubated at 37° C. in a humidified atmosphere with 5% CO2. Cells were then seeded at 7000 cells/cm^2 and were maintained in a low serum medium for almost 2 weeks to induce differentiation into DRGs. The complete composition of the low serum medium was: DMEM supplemented 2 mM glutamine, 1% FBS (Sigma-Aldrich, St. Louis, MO, USA). The medium was replaced every 2 days. Immunofluorescence was used to confirm cell differentiation (data not shown). F11 cells maintained in 10% FBS medium were used as control (control, undifferentiated). Morphological and functional analyses were performed after two weeks of treatment with low serum, at complete differentiation of the cells. The undifferentiated control cells underwent the same analysis at 7 days to avoid dramatic cell death due to confluence. The fully differentiated cells were treated with 1 μM rhNGF alone or in combination with 30 nM Sesamin, for 24 h. Control and treated cells were collected and lysed in ice-cold RIPA buffer (Thermo Scientific, USA) with freshly added protease and phosphatase inhibitors. Protein lysates (30 μg) were separated on 4%-12% precast gel using MOPS or MES buffers (Thermo Scientific, USA) depending on the size of the proteins of interest. Then proteins were electroblotted on polyvinyldifluoride membrane (PVDF; Sigma, St Loius, USA) and nonspecific binding sites were blocked in Blocking buffer (Thermo Scientific) for 15 minutes at RT. Afterward, membranes were incubated overnight at 4° C. with the following primary antibodies, diluted in Blocking buffer: rabbit anti-Atg5 1:1000 (Abcam, ab228668, UK), rabbit anti-LC3 1:2000 (Abcam, ab192890, UK), rabbit anti-Beclin 1:2000 (Abcam, ab207612, UK), rabbit anti-P62 1:500 (Abcam, ab91526, UK), rabbit anti-vinculin 1:1000 (Abcam, ab219649, UK) and HRP-conjugated Actin 1:1000 (Cell Signaling, #5125, USA). As secondary antibodies, peroxidase-conjugated anti-rabbit IgG 1:10000 (Abcam, UK) were used. Immunoreactive bands were visualized by ECL (Thermo Scientific, USA), according to the manufacturer's instructions. The relative optical densities of the immunoreactive bands were determined and normalized with respect to those of the anti-Vinculin or anti-Actin (depending on the molecular weight of the analyzed protein and the gel/buffer used), using ImageJ software. The phosphorylated forms were normalized upon the total form.

[2] = topical administration, 200 μg/mL NGF; cited from earlier work
[3] = In-use stability of rhNGF lyophilized formulation (Formulation 6) after reconstitution: oxidized NGF impurity; type: physicochemical
Method: An in-use stability study of said rhNGF lyophilized formulation (according to Formulation 6) after reconstitution with sesamin-containing reconstitution solvent B or with WFI was carried out as follows.
The tests were performed on said lyophilized formulation reconstituted in solvent B or in WFI, stored at different temperatures (+2/+8° C. or 25° C.-60% Relative Humidity), over 28 days, to verify the possible impurity formation in rhNGF reconstituted liquid formulations, in glass vials.
The impurity was determined as the percentage (w/w) of oxidized NGF in respect of the total NGF comprised in the reconstituted liquid formulation.

patients = settings: cited from earlier work
[4] = differentiated F11 cells, 1 μM rhNGF alone, vs control (FIG. 1)

With `c1cc2c(cc1[C@H]1OC[C@H]3[C@@H]1CO[C@@H]3c1ccc3c(c1)OCO3)OCO2` [sesamin, 5,5′-[(1S,3aR,4S,6aR)-Tetrahydro-1H,3H-furo[3,4-c]furan-1,4-diyl]bis(2H-1,3-benzodioxole)] the “eye discomfort induced by rhNGF” value (male Sprague-Dawley rats) was “can relieve the eye discomfort” and the autophagy ([1]; 30 nM Sesamin combined with 1 μM rhNGF, vs NGF alone) was “significantly reduced”.
In the case of “rhNGF: recombinant human nerve growth factor, amino acid sequence SEQ ID NO. 1 and/or SEQ ID NO. 2”, the “levels of the protein in all ocular tissues, included the retina and optic nerve” value [2] is given as “high levels”, the “time of peak increase in ocular tissues after administration” value [2] is given as 6 h and the “NGF oxidation product %” value ([3]; reconstituted with WFI, +2/+8° C., day 0) is given as 4.00%. The “NGF oxidation product %” value ([3]; reconstituted with WFI, +2/+8° C., day 28) was 4.86%, the “NGF oxidation product %” value ([3]; reconstituted with WFI, +25° C./60% Relative Humidity, day 0) was 4.00% and the “NGF oxidation product %” value ([3]; reconstituted with WFI, +25° C./60% Relative Humidity, day 28) was 6.48%. The “NGF oxidation product %” value ([3]; reconstituted with reconstitution solvent B (sesamin 1.5 μg/mL), +2/+8° C., day 0) was 3.11%, the “NGF oxidation product %” value ([3]; reconstituted with reconstitution solvent B (sesamin 1.5 μg/mL), +2/+8° C., day 28) was 4.21% and the “NGF oxidation product %” value ([3]; reconstituted with reconstitution solvent B (sesamin 1.5 μg/mL), +25° C./60% Relative Humidity, day 0) was 3.11%. For the same molecule, the “NGF oxidation product %” value ([3]; reconstituted with reconstitution solvent B (sesamin 1.5 μg/mL), +25° C./60% Relative Humidity, day 28) was 5.06%, the “level of P62 (autophagy-specific substrate)” value [1, 4] was “decreased” and the “levels of Atg5” value [1, 4] was “significantly increased”. The “levels of Beclin” value [1, 4] was “significantly increased”, the “levels of LC3-I” value [1, 4] was “increased levels” and the “levels of LC3-II” value [1, 4] was “increased levels”. For the same molecule, the “primary side effect reported by patients after topical ocular administration” value (patients; clinical trials or approved indications, mild and transient) was “eye discomfort” and the “safety of topical administration on the ocular surface” value (patients; clinical trials) was “safe”.
